Measurements published in patent publication US20160280796A1 (Memorial Sloan Kettering, published 2016).

Key:
[1] = target: T1, MHC1/WT1 peptide complex (soluble, biotinylated MHC-WT1 loaded on streptavidin biosensor) (human); test: ForteBio Octet QK, biotinylated MHC-WT1 on streptavidin biosensor, antibody at 20 µg/ml, 1:1 model
T1 construct: also called WT1/HLA-A2 complex

[2] = target: T1, MHC1/WT1 peptide complex (soluble, …); test: ForteBio Octet QK, biotinylated MHC-WT1 on streptavidin biosensor, antibody at 10 µg/ml, 1:1 model

Binder	Kd [1] [nM]	koff [1] [s⁻¹]	kon [1] [M⁻¹ s⁻¹]	Kd [2] [nM]	koff [2] [s⁻¹]	kon [2] [M⁻¹ s⁻¹]
ESK1-OKT3 (bi-specific), full length bi-specific antibody made from ESK1 and anti-CD3 OKT3 by 2-MEA reduction and re-oxidation (bispecific antibody, also called ESK1/OKT3 bi-specific monoclonal antibody) heavy 1: not shown light 1: not shown heavy 2: not shown light 2: DIQMTQSPSSLSASVGDRVTITCSASSSVSYMNWYQQTPGKAPKRWIYDTSKLASGVPSRFSGSGSGTDYTFTISSLQPEDIATYYCQQWSSNPFTFGQGTKLQITRTVAAPSVFIFPPSDEQLKSGTASVVCLLNNFYPREAKVQWKVDNALQSGNSQESVTEQDSKDSTYSLSSTLTLSKADYEKHKVYACEVTHQGLSSPVTKSFNRGEC	92.2	0.0033	35800			
ESK1 (full-length antibody, parent of the ESK1-OKT3 bi-specific) (antibody, V domains shown, also called ESK1 mAb) VH: QMQLVQSGAEVKEPGESLRISCKGSGYSFTNFWISWVRQMPGKGLEWMGRVDPGYSYSTYSPSFQGHVTISADKSTSTAYLQWNSLKASDTAMYYCARVQYSGYYDWFDPWGQGTLVTVSS VL: not shown				9.12	0.00499	547000
